Experimental data: PMC5476825, “Towards repurposing the yeast peroxisome for compartmentalizing heterologous metabolic pathways” (Nature Communications, 2016)
Primed or numbered codes have the meaning given here. Ends that are not written are not given here. 5FAM′ = 5-carboxyfluorescein

T1: His6-Pex5c, C-terminal fragment (residues 295-612) of S. cerevisiae PEX5 (S. cerevisiae, UniProt P35056 295-612)
T1 construct: Pex5p (PEX5), PTS1 import receptor, S. cerevisiae, C-terminal fragment residues 295-612; Plasmid was a gift of Brooke M. Gardner; also called Pex5p C-terminal fragment; C-terminal truncation of Pex5p; not shown: His6, N-terminal, kept
T1 sequence (looked up): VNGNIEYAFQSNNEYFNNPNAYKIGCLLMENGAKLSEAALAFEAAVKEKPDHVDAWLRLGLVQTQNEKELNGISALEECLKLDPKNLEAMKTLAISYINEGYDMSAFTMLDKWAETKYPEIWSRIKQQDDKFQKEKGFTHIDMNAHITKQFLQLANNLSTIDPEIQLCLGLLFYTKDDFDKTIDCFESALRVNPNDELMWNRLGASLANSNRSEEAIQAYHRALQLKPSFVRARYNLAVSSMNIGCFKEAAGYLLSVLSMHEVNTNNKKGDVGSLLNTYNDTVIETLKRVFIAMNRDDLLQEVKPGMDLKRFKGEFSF


How the values were obtained:
[1] = molecular target: T1, His6-Pex5c, C-terminal fragment …; experiment: fluorescence polarisation; direct titration: His6-Pex5C from 6.5 uM downward in twofold increments against 20 nM 5FAM-…; 50 mM HEPES pH 7.4, 100 mM NaCl, 0.05% Tween-20; equilibrated 16 h at 4 °C; anisotropy converted to fraction bound; details: both partners purified
[2] = molecular target: T1, His6-Pex5c, C-terminal fragment …; experiment: fluorescence polarisation; competition: 375 nM Pex5c and 20 nM 5FAM-…, unlabelled … (4 mM to 3.8 nM) or … (0.5 mM to 0.47 nM) added; 50 mM HEPES pH 7.4, 100 mM NaCl, 0.05% Tween-20; equilibrated 16 h at 4 °C; fit with equation 17 of Roehrl et al.; details: both partners purified

Kd [1] [nM] | Kd [2] [nM] | Binder
355 ± 6.38 |  | {5FAM′}-LGRGRRSKL (ePTS1: linker LGRGRR selected from a randomized six-residue linker library, followed by the canonical PTS1 SKL; also called fluorescein-tagged ePTS1 peptide; source: synthetic peptide, bought: Elim Biopharmaceuticals Inc) [5-Carboxyfluorescein-LGRGRRSKL]
 | 176000 ± 17300 | DELYKGSKL (peptide that results from fusion of the canonical PTS1 (SKL) to the C-terminus of YFP; source: synthetic peptide, bought: Elim Biopharmaceuticals Inc) [PTS1 peptide (DELYKGSKL)]
 | 800 ± 100 | LGRGRRSKL (ePTS1: linker LGRGRR selected from a randomized six-residue linker library, followed by the canonical PTS1 SKL; also called enhanced PTS1; source: synthetic peptide, bought: Elim Biopharmaceuticals Inc) [ePTS1 peptide (LGRGRRSKL)]
